In article PMC2756588:

Experiments:
Assay in all cases: SPOT array
[1] = biological target: T1, Abp1, P15891; conditions: median of control spots 935
T1 sequence (P15891 535-592, looked up): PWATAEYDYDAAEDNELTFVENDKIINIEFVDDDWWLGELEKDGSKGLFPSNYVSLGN

[2] = biological target: T2, Bbc1, P47068; conditions: median of control spots 796
T2 sequence (P47068 1-78, looked up): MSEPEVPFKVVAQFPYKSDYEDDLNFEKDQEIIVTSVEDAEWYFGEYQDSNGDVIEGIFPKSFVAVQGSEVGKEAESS

[3] = biological target: Bem1-1, P29366; conditions: median of control spots 4282
[4] = biological target: Bem1-2, P29366; conditions: median of control spots 4347
[5] = biological target: T3, Boi1, P38041; conditions: median of control spots 1162
T3 sequence (P38041 1-86, looked up): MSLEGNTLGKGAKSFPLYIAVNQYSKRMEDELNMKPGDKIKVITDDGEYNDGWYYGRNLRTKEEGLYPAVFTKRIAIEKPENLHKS

[6] = biological target: T4, Boi2, P39969; conditions: median of control spots 1161
T4 sequence (P39969 32-116, looked up): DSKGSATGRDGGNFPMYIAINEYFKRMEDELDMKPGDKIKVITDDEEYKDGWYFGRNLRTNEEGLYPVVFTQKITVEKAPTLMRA

[7] = biological target: T5, Bud14, P27637; conditions: median of control spots 956
T5 sequence (P27637 247-328, looked up): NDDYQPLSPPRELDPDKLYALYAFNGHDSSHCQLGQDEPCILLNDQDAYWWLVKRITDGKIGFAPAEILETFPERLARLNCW

[8] = biological target: T6, Bzz1-1, P38822; conditions: median of control spots 4446
T6 sequence (P38822 478-572, looked up): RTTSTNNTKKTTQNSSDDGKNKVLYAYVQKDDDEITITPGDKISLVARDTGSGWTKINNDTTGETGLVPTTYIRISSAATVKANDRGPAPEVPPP

[9] = biological target: T7, Bzz1-2, P38822; conditions: median of control spots 4538
T7 sequence (P38822 568-633, looked up): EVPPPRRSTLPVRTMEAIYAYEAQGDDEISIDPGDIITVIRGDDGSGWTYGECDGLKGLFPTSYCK

[10] = biological target: T8, Cdc25, P04821; conditions: median of control spots 969
T8 sequence (P04821 50-136, looked up): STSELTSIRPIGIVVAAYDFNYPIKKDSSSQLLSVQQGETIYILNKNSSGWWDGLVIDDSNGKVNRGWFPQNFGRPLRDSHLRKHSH

[11] = biological target: T9, Cyk3, Q07533; conditions: median of control spots 1451
T9 sequence (Q07533 1-83, looked up): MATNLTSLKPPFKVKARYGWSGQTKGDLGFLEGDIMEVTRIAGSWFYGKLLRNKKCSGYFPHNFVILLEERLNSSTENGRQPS

[12] = biological target: T10, Fus1, P11710; conditions: median of control spots 1200
T10 sequence (P11710 432-512, looked up): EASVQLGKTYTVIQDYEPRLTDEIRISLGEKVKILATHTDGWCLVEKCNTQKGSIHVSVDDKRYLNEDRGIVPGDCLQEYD

[13] = biological target: GST; conditions: median of control spots 978
[14] = biological target: T11, Hof1, Q05080; conditions: median of control spots 4086
T11 sequence (Q05080 590-669, looked up): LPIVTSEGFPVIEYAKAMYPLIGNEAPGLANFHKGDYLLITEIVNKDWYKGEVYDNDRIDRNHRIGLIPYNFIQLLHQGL

[15] = biological target: T12, Hse1, P38753; conditions: median of control spots 1727
T12 sequence (P38753 208-285, looked up): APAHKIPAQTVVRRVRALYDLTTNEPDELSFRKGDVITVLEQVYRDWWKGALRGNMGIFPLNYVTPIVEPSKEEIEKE

[16] = biological target: T13, Lsb1, P53281; conditions: median of control spots 388
T13 sequence (P53281 45-122, looked up): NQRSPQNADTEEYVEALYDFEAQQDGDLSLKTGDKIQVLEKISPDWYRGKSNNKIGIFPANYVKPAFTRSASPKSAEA

[17] = biological target: T14, Lsb3, P43603; conditions: median of control spots 406
T14 sequence (P43603 385-451, looked up): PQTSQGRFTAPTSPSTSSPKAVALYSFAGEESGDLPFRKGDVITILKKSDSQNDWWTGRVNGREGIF

[18] = biological target: T15, Lsb4, P32793; conditions: median of control spots 397
T15 sequence (P32793 402-468, looked up): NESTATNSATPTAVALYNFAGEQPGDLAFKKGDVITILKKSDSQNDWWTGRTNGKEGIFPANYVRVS

[19] = biological target: Myo3, P36006; conditions: median of control spots 468
[20] = biological target: T16, Myo5, Q04439; conditions: median of control spots 471
T16 sequence (Q04439 1072-1160, looked up): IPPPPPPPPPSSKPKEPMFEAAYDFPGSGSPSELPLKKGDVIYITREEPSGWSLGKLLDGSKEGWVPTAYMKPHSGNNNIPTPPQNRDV

[21] = biological target: T17, Nbp2, Q12163; conditions: median of control spots 357
T17 sequence (Q12163 103-180, looked up): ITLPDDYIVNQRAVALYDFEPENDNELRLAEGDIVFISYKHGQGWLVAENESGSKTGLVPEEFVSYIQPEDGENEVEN

[22] = biological target: T18, Pex13, P80667; conditions: median of control spots 1341
T18 sequence (P80667 295-386, looked up): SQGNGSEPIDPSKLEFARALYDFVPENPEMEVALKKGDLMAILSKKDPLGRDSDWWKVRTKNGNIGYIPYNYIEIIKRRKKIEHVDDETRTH

[23] = biological target: T19, Pin3, Q06449; conditions: median of control spots 2171
T19 sequence (Q06449 53-122, looked up): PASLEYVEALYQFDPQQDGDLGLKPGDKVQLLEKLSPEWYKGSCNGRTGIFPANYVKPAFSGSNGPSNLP

[24] = biological target: Rvs167, P39743; conditions: median of control spots 2707
[25] = biological target: Sho1, P40073; conditions: median of control spots 1148
[26] = biological target: T20, Sla1-2, P32790; conditions: median of control spots 712
T20 sequence (P32790 60-140, looked up): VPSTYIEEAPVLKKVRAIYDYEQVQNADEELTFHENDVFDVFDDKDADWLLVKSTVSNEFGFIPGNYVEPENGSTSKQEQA

[27] = biological target: T21, Sla1-3, P32790; conditions: median of control spots 5475
T21 sequence (P32790 344-424, looked up): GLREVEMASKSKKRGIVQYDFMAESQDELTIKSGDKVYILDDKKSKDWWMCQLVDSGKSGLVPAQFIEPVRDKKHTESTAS

Bem1-2, P29366, sequence (P29366 139-227): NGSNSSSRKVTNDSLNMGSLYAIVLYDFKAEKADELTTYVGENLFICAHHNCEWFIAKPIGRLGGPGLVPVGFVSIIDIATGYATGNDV
Rvs167, P39743, sequence (P39743 419-482): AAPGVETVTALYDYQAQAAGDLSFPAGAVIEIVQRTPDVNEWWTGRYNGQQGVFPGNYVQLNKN
Bem1-1, P29366, sequence (P29366 55-141): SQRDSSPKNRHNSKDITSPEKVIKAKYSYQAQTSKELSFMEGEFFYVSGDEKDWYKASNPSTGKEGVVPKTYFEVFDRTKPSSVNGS
Sho1, P40073, sequence (P40073 287-367): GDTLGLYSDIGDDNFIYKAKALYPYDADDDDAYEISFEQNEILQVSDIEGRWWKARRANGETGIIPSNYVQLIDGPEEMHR

**Q.** What does the source list for SHRLWLYAAPKRPKT?
**A.** SPOT intensity [1]: 47; SPOT intensity [2]: 34; SPOT intensity [3]: 0; SPOT intensity [4]: 0; SPOT intensity [5]: 1; SPOT intensity [6]: 0; SPOT intensity [7]: 5; SPOT intensity [8]: 2; SPOT intensity [9]: 0; SPOT intensity [10]: 5; SPOT intensity [11]: 4; SPOT intensity [12]: 20; SPOT intensity [13]: 0; SPOT intensity [14]: 5; SPOT intensity [15]: 8; SPOT intensity [16]: 0; SPOT intensity [17]: 5; SPOT intensity [18]: 0; SPOT intensity [19]: 6; SPOT intensity [20]: 0; SPOT intensity [21]: 1; SPOT intensity [22]: 8; SPOT intensity [23]: 13; SPOT intensity [24]: 0; SPOT intensity [25]: 39; SPOT intensity [26]: 3; SPOT intensity [27]: 16

**Q.** LKQRFFLMFPKSIIW was tested. Which SPOT intensity [1] did it give?
**A.** 63

**Q.** What about the SPOT intensity [2] of the same binder?
**A.** 23

**Q.** And the SPOT intensity [3]?
**A.** 0

**Q.** And the SPOT intensity [4]?
**A.** 1

**Q.** What about the SPOT intensity [5] of the same binder?
**A.** 2

**Q.** What about the SPOT intensity [6] of the same binder?
**A.** 1

**Q.** And the SPOT intensity [7]?
**A.** 27

**Q.** And the SPOT intensity [8]?
**A.** 0

**Q.** And the SPOT intensity [9]?
**A.** 0

**Q.** What about the SPOT intensity [10] of the same binder?
**A.** 25

**Q.** What about the SPOT intensity [11] of the same binder?
**A.** 4

**Q.** What about the SPOT intensity [12] of the same binder?
**A.** 38

**Q.** And the SPOT intensity [13]?
**A.** 0

**Q.** What about the SPOT intensity [14] of the same binder?
**A.** 5

**Q.** And the SPOT intensity [15]?
**A.** 8

**Q.** And the SPOT intensity [16]?
**A.** 7

**Q.** And the SPOT intensity [17]?
**A.** 0

**Q.** What about the SPOT intensity [18] of the same binder?
**A.** 0

**Q.** What about the SPOT intensity [19] of the same binder?
**A.** 12

**Q.** And the SPOT intensity [20]?
**A.** 0

**Q.** What about the SPOT intensity [21] of the same binder?
**A.** 9

**Q.** And the SPOT intensity [22]?
**A.** 21

**Q.** What about the SPOT intensity [23] of the same binder?
**A.** 54

**Q.** And the SPOT intensity [24]?
**A.** 0

**Q.** What about the SPOT intensity [25] of the same binder?
**A.** 53

**Q.** What about the SPOT intensity [26] of the same binder?
**A.** 0

**Q.** What about the SPOT intensity [27] of the same binder?
**A.** 17

**Q.** KTRLRPAFIQQLWSS was tested. Which SPOT intensity [1] did it give?
**A.** 31

**Q.** What about the SPOT intensity [2] of the same binder?
**A.** 17

**Q.** What about the SPOT intensity [3] of the same binder?
**A.** 1

**Q.** And the SPOT intensity [4]?
**A.** 0

**Q.** And the SPOT intensity [5]?
**A.** 1

**Q.** What about the SPOT intensity [6] of the same binder?
**A.** 0

**Q.** What about the SPOT intensity [7] of the same binder?
**A.** 4

**Q.** And the SPOT intensity [8]?
**A.** 0

**Q.** What about the SPOT intensity [9] of the same binder?
**A.** 0

**Q.** And the SPOT intensity [10]?
**A.** 13

**Q.** And the SPOT intensity [11]?
**A.** 3

**Q.** What about the SPOT intensity [12] of the same binder?
**A.** 7

**Q.** And the SPOT intensity [13]?
**A.** 0

**Q.** And the SPOT intensity [14]?
**A.** 0

**Q.** And the SPOT intensity [15]?
**A.** 5

**Q.** And the SPOT intensity [16]?
**A.** 0

**Q.** What about the SPOT intensity [17] of the same binder?
**A.** 0

**Q.** And the SPOT intensity [18]?
**A.** 0

**Q.** And the SPOT intensity [19]?
**A.** 0

**Q.** What about the SPOT intensity [20] of the same binder?
**A.** 0

**Q.** And the SPOT intensity [21]?
**A.** 4

**Q.** What about the SPOT intensity [22] of the same binder?
**A.** 7

**Q.** And the SPOT intensity [23]?
**A.** 15

**Q.** What about the SPOT intensity [24] of the same binder?
**A.** 1

**Q.** And the SPOT intensity [25]?
**A.** 22

**Q.** What about the SPOT intensity [26] of the same binder?
**A.** 0

**Q.** And the SPOT intensity [27]?
**A.** 33

**Q.** For NNFYRPLLRSVLVLL, which SPOT intensity [1] is on record?
**A.** 14

**Q.** And the SPOT intensity [2]?
**A.** 37

**Q.** What about the SPOT intensity [3] of the same binder?
**A.** 0

**Q.** And the SPOT intensity [4]?
**A.** 3

**Q.** And the SPOT intensity [5]?
**A.** 6

**Q.** And the SPOT intensity [6]?
**A.** 2

**Q.** What about the SPOT intensity [7] of the same binder?
**A.** 14

**Q.** And the SPOT intensity [8]?
**A.** 3

**Q.** What about the SPOT intensity [9] of the same binder?
**A.** 2

**Q.** And the SPOT intensity [10]?
**A.** 22

**Q.** And the SPOT intensity [11]?
**A.** 9

**Q.** What about the SPOT intensity [12] of the same binder?
**A.** 13

**Q.** What about the SPOT intensity [13] of the same binder?
**A.** 1

**Q.** What about the SPOT intensity [14] of the same binder?
**A.** 0

**Q.** And the SPOT intensity [15]?
**A.** 0

**Q.** What about the SPOT intensity [16] of the same binder?
**A.** 0

**Q.** What about the SPOT intensity [17] of the same binder?
**A.** 1

**Q.** And the SPOT intensity [18]?
**A.** 0

**Q.** What about the SPOT intensity [19] of the same binder?
**A.** 0

**Q.** And the SPOT intensity [20]?
**A.** 0

**Q.** And the SPOT intensity [21]?
**A.** 3

**Q.** And the SPOT intensity [22]?
**A.** 4

**Q.** And the SPOT intensity [23]?
**A.** 5

**Q.** And the SPOT intensity [24]?
**A.** 2

**Q.** What about the SPOT intensity [25] of the same binder?
**A.** 17

**Q.** And the SPOT intensity [26]?
**A.** 0

**Q.** What about the SPOT intensity [27] of the same binder?
**A.** 4
